Experimental data: patent US20220356255A1 (CENTESSA PHARMACEUTICALS UK, published 2022)
Positions count from the first letter of the chain named.

What was measured:
[1] = molecular target: T1, human PD-L1 on cells (human, UniProt Q9NZQ7 19-290); assay: flow cytometry on MDA-MB-231 cells, Krebs buffer; ratio of EC50 values
T1 construct: Endogenous on MDA-MB-231 cells or transfected into HEK293FF cells (Sino Biological plasmid); the assay field says which; also called native PD-L1 on MDA-MB-231 cells; PD-L1 expressing MDA-MB-231 cells
T1 sequence (Q9NZQ7 19-290 limits assumed): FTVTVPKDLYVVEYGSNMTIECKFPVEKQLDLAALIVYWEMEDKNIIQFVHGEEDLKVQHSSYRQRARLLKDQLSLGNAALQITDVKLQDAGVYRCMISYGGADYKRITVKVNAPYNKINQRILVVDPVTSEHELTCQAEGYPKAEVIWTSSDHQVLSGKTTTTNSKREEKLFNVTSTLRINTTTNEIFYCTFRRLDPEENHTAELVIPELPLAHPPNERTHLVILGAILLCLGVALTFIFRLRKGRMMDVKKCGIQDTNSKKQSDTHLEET
Protocol: (§1) Anti-PD-L1 affinity matured Fabs were tested for their ability to bind to native PD-L1 in a cell line, (MDA-MB-231 cells) in a buffer resembling the tumor microenvironment (Krebs-lactate).

[2] = molecular target: T2, biotinylated human PD-L1 (human, UniProt Q9NZQ7 19-239, limits assumed, biotinylated (sites not given)); assay: competition ELISA, Fab with biotinylated PD-L1 on coated PD-1-Fc, pH 6
T2 construct: Bought from R&D Systems; also called biotinylated-PD-L1; human PD-L1 biotin
T2 sequence (Q9NZQ7 19-239 limits assumed): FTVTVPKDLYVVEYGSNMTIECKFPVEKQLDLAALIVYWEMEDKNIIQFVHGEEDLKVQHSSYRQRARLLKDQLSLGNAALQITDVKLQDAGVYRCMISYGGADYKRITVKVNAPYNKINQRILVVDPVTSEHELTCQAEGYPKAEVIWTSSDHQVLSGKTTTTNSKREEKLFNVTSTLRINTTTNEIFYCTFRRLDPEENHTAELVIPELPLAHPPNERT

[3] = molecular target: T3, human PD-L1-Fc protein (human, UniProt Q9NZQ7 19-239); assay: ELISA, Fab on coated human PD-L1-Fc, pH 6
T3 construct: Bought from R&D Systems; also called immobilised PD-L1-Fc; not shown: Fc part of the bought fusion protein, not described
T3 sequence (Q9NZQ7 19-239 limits assumed): as above

[4] = molecular target: T2, biotinylated human PD-L1; assay: competition ELISA, Fab with biotinylated PD-L1 on coated PD-1-Fc, pH 7.4
[5] = molecular target: T2, biotinylated human PD-L1; assay: competition ELISA, Fab with biotinylated PD-L1 on coated PD-1-Fc
[6] = molecular target: T2, biotinylated human PD-L1; assay: competition ELISA, Fab with biotinylated PD-L1 on coated PD-1-Fc, pH 6; remark: listed apart in the source
[7] = molecular target: T1, human PD-L1 on cells; assay: flow cytometry on MDA-MB-231 cells, Krebs buffer, pH 7.4
Protocol: as §1

[8] = molecular target: T2, biotinylated human PD-L1; assay: competition ELISA, Fab with biotinylated PD-L1 on coated PD-1-Fc, pH 6.5
[9] = molecular target: T3, human PD-L1-Fc protein; assay: ELISA, Fab on coated human PD-L1-Fc, pH 7.4; pH 7.4
[10] = molecular target: T2, biotinylated human PD-L1; assay: competition ELISA, Fab with biotinylated PD-L1 on coated PD-1-Fc; ratio of IC50 values
[11] = molecular target: T1, human PD-L1 on cells; assay: flow cytometry on MDA-MB-231 cells, Krebs buffer, pH 6
Protocol: as §1

[12] = molecular target: T3, human PD-L1-Fc protein; assay: BIAcore off rate, unpurified periplasmic extract Fab on PD-L1, pH 7.4
[13] = molecular target: T1, human PD-L1 on cells; assay: flow cytometry on MDA-MB-231 cells, Krebs buffer, pH 6.5
Protocol: as §1

[14] = molecular target: T3, human PD-L1-Fc protein; assay: ELISA, purified Fab on coated human PD-L1-Fc, pH 6 (FIG. 4)
[15] = molecular target: T3, human PD-L1-Fc protein; assay: ELISA, Fab on coated human PD-L1-Fc; ratio from extrapolating an OD of 0.3 at pH 6 versus pH 7.4
[16] = molecular target: T3, human PD-L1-Fc protein; assay: BIAcore off rate, unpurified periplasmic extract Fab on PD-L1
[17] = molecular target: T3, human PD-L1-Fc protein; assay: BIAcore off rate, unpurified periplasmic extract Fab on PD-L1, pH 6
[18] = molecular target: T1, human PD-L1 on cells; assay: flow cytometry on MDA-MB-231 cells, Krebs buffer with lactate, pH 6.0 (FIG. 3); pH 6.0
Protocol: (§2) In order to mimic an acidic tumor environment milieu with tumor cells expressing PD-L1 (The metabolism of tumors in the body, Warburg et al. J Gen Physiol. 1927; 8:519-30) the following buffers were utilised: Krebs ringer bicarbonate buffer (KRB, Amsbio catalog number KRB-1000) with 1 mM lactic acid (Sigma catalog number 252476-50DG) for pH 7.4; KRB plus 15 mM lactic acid for pH 6.5 and KRB plus 20 mM lactic acid for pH 6.0). 3 fold dilutions (100 nM to 0.0005 nM; 0) of the Fabs or IgG were prepared in the respective pH buffers and incubated with 0.60E05 MDA-MB-231 cells for 60 minutes at 4° C. The cells were then washed 3× with the respective pH buffers, at 300 g for 3 min. The cells were then incubated with 50 μl of anti-human IgG (Fab specific)-FITC (Sigma, catalog number F5512-1ML) at 1:100 dilution in the respective pH buffers. Binding of the IgG or Fab to PD-L1 expressing cells was measured by FACS (Attune Nxt) and a total of 10.000 cells were acquired per sample.

[19] = molecular target: T2, biotinylated human PD-L1; assay: competition ELISA, mAb with biotinylated PD-L1 on coated B7-1-Fc (CD80) (FIG. 1B); PD-L1 binding to CD80 (FIG. 1B)
[20] = molecular target: T2, biotinylated human PD-L1; assay: competition ELISA, mAb with biotinylated PD-L1 on coated PD-1-Fc (FIG. 1A); PD-L1 binding to PD-1 (FIG. 1A)
[21] = molecular target: T3, human PD-L1-Fc protein; assay: SPR BIAcore, mAb over immobilised PD-L1-Fc, pH 6.5
Protocol: (§3) To assess the affinity of selected IgG formatted purified clones to human PD-L1 at pH6.0 and at pH7.4, human PD-L1-Fc protein was coated by amine coupling. Surface plasmon resonance (SPR) (BIAcore 3000, GE Healthcare) was used to determine the binding kinetics of selected IgG formatted purified clones to human PD-L1 at pH6.0 and at pH 7.4. Approximately 3000 RU of human PD-L1 Fc (R&D Systems) at 50 μg/ml in Acetate buffer pH 5.0 was immobilized onto a CM5 chip using the standard amine coupling procedure. QC of the PD-L1 immobilization was performed using an anti-PD-L1 commercial antibody (R&D systems cat. no. AF156) at 2.0 μg/ml. 1×HBS-EP pH 7.4 or HBS-EP pH 7.0 or HBS-EP […] citrate buffer pH 6.5 or HBS-EP […] citrate buffer pH 6.0, were utilized as running buffers during binding kinetic measurements. […] Fitting 1:1 binding with mass transfer was applied to the curves using the BIAevaluation software to calculate the kinetic constants of the antibody-antigen interactions including association rate (ka), dissociation rate (kd) and affinity (KD).

[22] = molecular target: T1, human PD-L1 on cells; assay: flow cytometry on MDA-MB-231 cells, Krebs buffer with lactate, pH 7.4 (FIG. 3); pH 7.4
Protocol: as §2

[23] = molecular target: T3, human PD-L1-Fc protein; assay: SPR BIAcore, mAb over immobilised PD-L1-Fc, pH 6.0
[24] = molecular target: T3, human PD-L1-Fc protein; assay: SPR BIAcore, mAb over immobilised PD-L1-Fc, pH 7.4
Protocol: as §3

[25] = molecular target: T3, human PD-L1-Fc protein; assay: SPR BIAcore, mAb over immobilised PD-L1-Fc, pH 7.0
Protocol: as §3

[26] = molecular target: T1, human PD-L1 on cells; assay: flow cytometry on MDA-MB-231 cells, Krebs buffer with lactate, pH printed as 6.6 (FIG. 3); pH printed as 6.6 (experiment described at pH 6.5); pH 6.6
Protocol: as §2

[27] = molecular target: T3, human PD-L1-Fc protein; assay: SPR BIAcore off rate, mAb over immobilised PD-L1-Fc (FIG. 2)
Protocol: as §3

[28] = molecular target: T3, human PD-L1-Fc protein; assay: SPR BIAcore, mAb over immobilised PD-L1-Fc
Protocol: as §3

B1: Fab 8D06 (Fab, V domains shown)
VH: QVQLVQSGGGVVQPGRSLRLSCAASGFTFSSYGMYWVRQAPGKGLEWVAVISYDGSNKYYADSVKGRFTISRDNSKNTLNLQMNSLRAEDTAVYYCAKGALTHWGVVIGDGMDVWGQGTTVTVSS
VL: NFMLTQPHSVSESPGKTVTISCVLSPRTHAGHYYRWYQQRPGSSPTTVIYEDDQRPSGVPDRFSGSIDSSSNSASLTISGLKTEDEADYYCQSFDSTNPWVFGGGTKLTVL
notes: Purified Fab prepared from IgG with the Pierce kit; also called 8D06 Fab
With B1 the “Ratio pH 6:7.4” value [1] was 11, the IC50 [2] was 13.1 nM and the EC50 [3] was 0.11 nM. The IC50 [4] was greater than 100 nM, the “fold less inhibitory activity at pH 6.5 than at pH 6” value [5] was roughly 3 fold and the “fold less (IC50) than the control Fab 2.7A04OPT at pH 6” value [6] was roughly 3 fold. The EC50 [7] was 16 nM, the IC50 [8] was 40 nM and the EC50 [9] was greater than 10 nM. The “Ratio pH 6:7.4” value [10] was greater than 7.63, the EC50 [11] was 1.45 nM and the koff [12] was 0.00345 s⁻¹. The EC50 [13] was 2.92 nM, the “concentration at saturation of binding” value [14] was 4 nM and the “Ratio pH 6:7.4” value [15] was 39. For the same binder, the “Ratio pH 6 vs 7.4” value [16] was 20 and the koff [17] was 0.000699 s⁻¹.

B2: mAb 2A09 (antibody, V domains shown)
VH: B1 VH
VL: B1 VL with V23T, L24R, P26S, R27G, T28S, H29I, G31S, H32N, Y34V, R35Q
notes: Fully human; also called 2A09_WT; 2A09 WT
With B2 the EC50 [18] was 2.4 nM, the IC50 [19] was 1.2 nM and the IC50 [20] was 0.4 nM. For the same binder, the Kd [21] was 0.18 nM, the koff [21] was 0.00129 s⁻¹ and the kon [21] was 7.36e+06 M⁻¹ s⁻¹. It also gave an EC50 [22] of 16.3 nM, a Kd [23] of 0.13 nM and a koff [23] of 0.000865 s⁻¹. For the same binder, the kon [23] was 6.77e+06 M⁻¹ s⁻¹, the Kd [24] was 2.6 nM and the koff [24] was 0.0271 s⁻¹. For the same binder, the kon [24] was 1.05e+07 M⁻¹ s⁻¹, the Kd [25] was 0.57 nM and the koff [25] was 0.00711 s⁻¹. The kon [25] was 1.25e+07 M⁻¹ s⁻¹, the EC50 [26] was 6.1 nM and the “fold better off rate at pH 6.0 than at pH 7.4” value [27] was roughly 5 fold. For the same binder, the “fold higher affinity at pH 6 than at pH 7.4” value [28] was roughly 20 fold.
